Molecular target: CDC37 (UniProt Q16543)
Experiment: anti-FLAG plate capture, CDC37-nanoKAZ luminescence
Details: reference: wild type

| fold change (sites S97) | Substance | further results |
| --- | --- | --- |
|  | DYRK1A (from UniProt Q13627) Y319F/Y321F | fold change (sites Y319,Y321): 6.2 |
|  | DYRK1A (from UniProt Q13627) Y321F | fold change (sites Y321): 5.2 |
| 54 | DYRK1A (from UniProt Q13627) K188R kinase-dead |  |
| 2.2 | DYRK1A (from UniProt Q13627) S97A |  |

— article PMC4844702, “Selective inhibition of the kinase DYRK1A by targeting its folding process” (Nature Communications, 2016)
